The values that follow come from publication PMC9482650, “Quantitative fragmentomics allow affinity mapping of interactomes” (Nature Communications, 2022).

Some targets named below: MAST1, Q9Y2H9; GRID2IP_2, A4D2P6; DLG5_1, Q8TDM6; IL16_3, Q14005; GRIP2_5, Q9C0E4; DLG2_3, Q15700; Inadl_4, Q8NI35; IL16_1, Q14005; PARD3_3, Q8TEW0; NHERF2_2, Q15599.
Common to all, as to assay: holdup assay
Holding throughout (parameters): key: below the threshold = too weak to quantify, mostly under pKd 3.1 to 4

Another test deals with T1, ARHGEF11, O15085.
T1 sequence (O15085 42-136, limits assumed, looked up): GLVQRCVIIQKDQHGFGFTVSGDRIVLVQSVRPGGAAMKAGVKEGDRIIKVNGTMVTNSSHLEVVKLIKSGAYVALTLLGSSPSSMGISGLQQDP

The target of another test is T2, APBA1_1, Q02410.
T2 sequence (Q02410 651-752, limits assumed, looked up): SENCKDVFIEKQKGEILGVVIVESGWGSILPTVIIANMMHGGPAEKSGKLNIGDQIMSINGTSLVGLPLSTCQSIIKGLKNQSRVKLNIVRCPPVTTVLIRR

The target in a further test is T3, MPP6, Q9NZW5.
T3 sequence (Q9NZW5 125-219, limits assumed, looked up): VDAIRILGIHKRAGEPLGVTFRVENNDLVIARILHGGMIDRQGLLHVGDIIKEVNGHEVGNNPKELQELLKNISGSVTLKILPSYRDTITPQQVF

In a further test the target is T4, SNTG2, Q9NY99.
T4 sequence (Q9NY99 68-166, limits assumed, looked up): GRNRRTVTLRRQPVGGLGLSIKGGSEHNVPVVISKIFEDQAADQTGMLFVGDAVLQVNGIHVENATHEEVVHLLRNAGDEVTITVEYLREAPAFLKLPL

In another test the target is T5, DFNB31_1, Q9P202.
T5 sequence (Q9P202 135-233, limits assumed, looked up): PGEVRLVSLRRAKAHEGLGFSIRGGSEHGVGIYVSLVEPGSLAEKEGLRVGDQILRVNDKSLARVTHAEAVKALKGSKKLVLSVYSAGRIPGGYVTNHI

A further test has as its target T6, PDZD7_3, Q9H5P4.
T6 sequence (Q9H5P4 857-944, limits assumed, looked up): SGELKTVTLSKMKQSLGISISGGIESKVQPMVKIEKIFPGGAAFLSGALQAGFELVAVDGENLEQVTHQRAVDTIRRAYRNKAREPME

The target in another test is T7, APBA1_2, Q02410.
T7 sequence (Q02410 742-832, limits assumed, looked up): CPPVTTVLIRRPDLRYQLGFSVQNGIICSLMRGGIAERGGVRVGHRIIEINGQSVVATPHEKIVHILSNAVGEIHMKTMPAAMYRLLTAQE

For the next test, the target named is T8, APBA2_2, Q99767.
T8 sequence (Q99767 654-744, limits assumed, looked up): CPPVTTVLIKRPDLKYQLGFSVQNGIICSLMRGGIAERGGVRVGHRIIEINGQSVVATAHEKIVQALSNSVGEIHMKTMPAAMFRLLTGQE

In the next test the target is T9, HTRA4, P83105.
T9 sequence (P83105 378-476, limits assumed, looked up): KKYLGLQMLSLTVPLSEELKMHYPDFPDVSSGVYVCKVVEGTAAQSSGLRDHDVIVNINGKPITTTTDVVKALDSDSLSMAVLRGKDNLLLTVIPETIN

The target of a further test is T10, MPP7, Q5T2T1.
T10 sequence (Q5T2T1 134-230, limits assumed, looked up): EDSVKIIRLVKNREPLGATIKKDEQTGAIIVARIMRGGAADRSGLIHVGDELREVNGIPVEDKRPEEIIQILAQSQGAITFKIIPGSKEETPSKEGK

A further test deals with T11, DLG3_3, Q92796.
T11 sequence (Q92796 374-475, limits assumed, looked up): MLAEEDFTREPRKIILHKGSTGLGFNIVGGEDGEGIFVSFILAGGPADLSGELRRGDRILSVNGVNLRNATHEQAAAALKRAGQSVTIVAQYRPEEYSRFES

For the next test, the target named is T12, GRIP1_2, Q9Y3R0.
T12 sequence (Q9Y3R0 145-248, limits assumed, looked up): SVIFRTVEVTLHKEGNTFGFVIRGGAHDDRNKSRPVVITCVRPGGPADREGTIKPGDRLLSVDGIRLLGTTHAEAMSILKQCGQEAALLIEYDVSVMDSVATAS

The target of a further test is T13, GRIP1_3, Q9Y3R0.
T13 sequence (Q9Y3R0 247-346, limits assumed, looked up): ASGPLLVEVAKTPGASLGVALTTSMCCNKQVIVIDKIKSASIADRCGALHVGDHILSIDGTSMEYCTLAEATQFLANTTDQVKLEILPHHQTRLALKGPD

Another test deals with T14, GRIP1_4, Q9Y3R0.
T14 sequence (Q9Y3R0 467-571, limits assumed, looked up): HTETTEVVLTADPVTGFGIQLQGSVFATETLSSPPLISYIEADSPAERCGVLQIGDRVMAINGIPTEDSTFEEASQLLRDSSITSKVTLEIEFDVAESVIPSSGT

[1] abbreviates: plain residues with an end cap or a label only (N-terminal biotin on a linker: ado-ado).
Setting [2] is: modified: phospho on T at position -2 from the C-terminal residue.

As usually defined, the pKd is the negative decadic logarithm of the Kd, by convention in mol/L.

Chain of IL16_3, Q14005 (Q14005 1107-1207): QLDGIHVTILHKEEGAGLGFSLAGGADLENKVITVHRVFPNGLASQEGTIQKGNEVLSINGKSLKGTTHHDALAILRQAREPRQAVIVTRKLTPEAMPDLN
Chain of PARD3_3, Q8TEW0 (Q8TEW0 582-685): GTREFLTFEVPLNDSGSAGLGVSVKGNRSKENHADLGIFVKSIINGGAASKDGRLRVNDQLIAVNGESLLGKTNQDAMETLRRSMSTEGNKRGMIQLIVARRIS
Chain of NHERF2_2, Q15599 (Q15599 142-238): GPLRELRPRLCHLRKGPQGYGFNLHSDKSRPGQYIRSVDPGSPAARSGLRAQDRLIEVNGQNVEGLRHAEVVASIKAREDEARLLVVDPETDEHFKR
Chain of MAST1, Q9Y2H9 (Q9Y2H9 962-1065): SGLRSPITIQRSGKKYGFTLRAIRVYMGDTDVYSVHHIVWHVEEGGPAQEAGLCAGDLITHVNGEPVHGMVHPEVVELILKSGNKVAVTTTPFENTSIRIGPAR
Chain of DLG5_1, Q8TDM6 (Q8TDM6 617-713): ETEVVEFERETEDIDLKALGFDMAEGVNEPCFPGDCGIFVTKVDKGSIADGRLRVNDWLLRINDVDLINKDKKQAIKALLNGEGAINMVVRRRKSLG
Chain of IL16_1, Q14005 (Q14005 210-306): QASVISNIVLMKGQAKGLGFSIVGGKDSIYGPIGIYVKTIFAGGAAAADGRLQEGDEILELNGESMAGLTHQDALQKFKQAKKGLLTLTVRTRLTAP
Chain of Inadl_4, Q8NI35 (Q8NI35 547-651): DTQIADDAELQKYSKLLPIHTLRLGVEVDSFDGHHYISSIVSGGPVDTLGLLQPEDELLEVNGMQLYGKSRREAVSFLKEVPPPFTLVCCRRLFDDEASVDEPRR
Chain of GRIP2_5, Q9C0E4 (Q9C0E4 544-642): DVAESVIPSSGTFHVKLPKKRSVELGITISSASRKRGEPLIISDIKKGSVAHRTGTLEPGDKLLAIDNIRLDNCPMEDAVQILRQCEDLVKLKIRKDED
Chain of GRID2IP_2, A4D2P6 (A4D2P6 272-370): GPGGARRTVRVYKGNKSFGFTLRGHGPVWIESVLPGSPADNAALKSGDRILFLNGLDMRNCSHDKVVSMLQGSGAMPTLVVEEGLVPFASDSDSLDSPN

Turning to AQRARSPSDV [GPR12, P47775], the negative logarithm of the Kd (pKd) result was “below the threshold” in the test with ARHGEF11, O15085 (setting [1]); “below the threshold” with APBA1_1, Q02410 (setting [1]); “below the threshold” in the test with MPP6, Q9NZW5 (setting [1]); “below the threshold” in the test with MAST1, Q9Y2H9 (setting [1]); “below the threshold” with SNTG2, Q9NY99 (setting [1]); “below the threshold” with GRID2IP_2, A4D2P6 (setting [1]). Besides, the pKd result was “below the threshold” in the test with DFNB31_1, Q9P202 (setting [1]); “below the threshold” with DLG5_1, Q8TDM6 (setting [1]); “below the threshold” with IL16_3, Q14005 (setting [1]); 3.48 with PDZD7_3, Q9H5P4 (setting [1]); 4.14 with APBA1_2, Q02410 (setting [1]); “below the threshold” in the test with APBA2_2, Q99767 (setting [1]). Further, the pKd result in the test with GRIP2_5, Q9C0E4 (setting [1]) was “below the threshold”; with HTRA4, P83105 (setting [1]) it was “below the threshold”; with DLG2_3, Q15700 (setting [1]) it was 3.67; with MPP7, Q5T2T1 (setting [1]) it was 3.59; with DLG3_3, Q92796 (setting [1]) it was “below the threshold”; in the test with Inadl_4, Q8NI35 (setting [1]), “below the threshold”. Moreover, the pKd entry was “below the threshold” with IL16_1, Q14005 (setting [1]); “below the threshold” with GRIP1_2, Q9Y3R0 (setting [1]); “below the threshold” with PARD3_3, Q8TEW0 (setting [1]); “below the threshold” with GRIP1_3, Q9Y3R0 (setting [1]); “below the threshold” with GRIP1_4, Q9Y3R0 (setting [1]); “below the threshold” in the test with NHERF2_2, Q15599 (setting [1]).
Take EDGESWEYQI [TRPV6, Q9H1D0]: the pKd in the test with ARHGEF11, O15085 (setting [1]) is 3.63; with APBA1_1, Q02410 (setting [1]), “below the threshold”; with MPP6, Q9NZW5 (setting [1]) it was 3.81; with MAST1, Q9Y2H9 (setting [1]), 4.28; with SNTG2, Q9NY99 (setting [1]), “below the threshold”; in the test with GRID2IP_2, A4D2P6 (setting [1]) it was “below the threshold”. The pKd result is given as “below the threshold” in the test with DFNB31_1, Q9P202 (setting [1]); “below the threshold” with DLG5_1, Q8TDM6 (setting [1]); “below the threshold” with IL16_3, Q14005 (setting [1]); “below the threshold” with PDZD7_3, Q9H5P4 (setting [1]); “below the threshold” with APBA1_2, Q02410 (setting [1]); “below the threshold” with APBA2_2, Q99767 (setting [1]). Further, the pKd result with GRIP2_5, Q9C0E4 (setting [1]) was “below the threshold”; in the test with HTRA4, P83105 (setting [1]), “below the threshold”; with DLG2_3, Q15700 (setting [1]), 3.48; with MPP7, Q5T2T1 (setting [1]), 5.06; with DLG3_3, Q92796 (setting [1]) it was “below the threshold”; with Inadl_4, Q8NI35 (setting [1]), “below the threshold”. The pKd entry with IL16_1, Q14005 (setting [1]) is “below the threshold”; in the test with GRIP1_2, Q9Y3R0 (setting [1]), “below the threshold”; in the test with PARD3_3, Q8TEW0 (setting [1]), 5.35; with GRIP1_3, Q9Y3R0 (setting [1]), “below the threshold”; in the test with GRIP1_4, Q9Y3R0 (setting [1]), “below the threshold”; with NHERF2_2, Q15599 (setting [1]), 3.67.
Take RQKEVRESKC [SCN8A, Q9UQD0]: the pKd entry with ARHGEF11, O15085 (setting [1]) is “below the threshold”; with APBA1_1, Q02410 (setting [1]), “below the threshold”; in the test with MPP6, Q9NZW5 (setting [1]) it was “below the threshold”; in the test with MAST1, Q9Y2H9 (setting [1]), 4.34; with SNTG2, Q9NY99 (setting [1]), 4.58; with GRID2IP_2, A4D2P6 (setting [1]), 3.69. In addition, the pKd with DFNB31_1, Q9P202 (setting [1]) was 4.1; with DLG5_1, Q8TDM6 (setting [1]), “below the threshold”; in the test with IL16_3, Q14005 (setting [1]), “below the threshold”; with PDZD7_3, Q9H5P4 (setting [1]), 3.85; with APBA1_2, Q02410 (setting [1]), “below the threshold”; with APBA2_2, Q99767 (setting [1]) it was “below the threshold”. For the same molecule, the negative logarithm of the Kd (pKd) entry in the test with GRIP2_5, Q9C0E4 (setting [1]) was “below the threshold”; with HTRA4, P83105 (setting [1]), “below the threshold”; with DLG2_3, Q15700 (setting [1]), 4.07; in the test with MPP7, Q5T2T1 (setting [1]), “below the threshold”; with DLG3_3, Q92796 (setting [1]) it was 3.58; with Inadl_4, Q8NI35 (setting [1]), “below the threshold”. Also, the pKd is 3.7 with IL16_1, Q14005 (setting [1]); “below the threshold” with GRIP1_2, Q9Y3R0 (setting [1]); “below the threshold” in the test with PARD3_3, Q8TEW0 (setting [1]); “below the threshold” in the test with GRIP1_3, Q9Y3R0 (setting [1]); “below the threshold” in the test with GRIP1_4, Q9Y3R0 (setting [1]); 3.57 with NHERF2_2, Q15599 (setting [1]).
For the molecule SSRTRRETQL [HPV16-E6_-2P, P03126], the pKd entry with ARHGEF11, O15085 (setting [2]) is on record as “below the threshold”; in the test with APBA1_1, Q02410 (setting [2]), “below the threshold”; in the test with MPP6, Q9NZW5 (setting [2]), “below the threshold”; with MAST1, Q9Y2H9 (setting [2]), “below the threshold”; with SNTG2, Q9NY99 (setting [2]), “below the threshold”; with GRID2IP_2, A4D2P6 (setting [2]), “below the threshold”. Further, the pKd result with DFNB31_1, Q9P202 (setting [2]) is on record as “below the threshold”; with DLG5_1, Q8TDM6 (setting [2]) it was “below the threshold”; with IL16_3, Q14005 (setting [2]) it was “below the threshold”; with PDZD7_3, Q9H5P4 (setting [2]), “below the threshold”; with APBA1_2, Q02410 (setting [2]), “below the threshold”; with APBA2_2, Q99767 (setting [2]) it was “below the threshold”. In addition, the pKd entry was “below the threshold” with GRIP2_5, Q9C0E4 (setting [2]); “below the threshold” with HTRA4, P83105 (setting [2]); “below the threshold” with DLG2_3, Q15700 (setting [2]); “below the threshold” in the test with MPP7, Q5T2T1 (setting [2]); “below the threshold” with DLG3_3, Q92796 (setting [2]); “below the threshold” with Inadl_4, Q8NI35 (setting [2]). Also, the pKd result with IL16_1, Q14005 (setting [2]) is listed as “below the threshold”; with GRIP1_2, Q9Y3R0 (setting [2]), “below the threshold”; with PARD3_3, Q8TEW0 (setting [2]), “below the threshold”; in the test with GRIP1_3, Q9Y3R0 (setting [2]) it was “below the threshold”; in the test with GRIP1_4, Q9Y3R0 (setting [2]) it was “below the threshold”; with NHERF2_2, Q15599 (setting [2]), “below the threshold”.
